Laboratory results from PMC6797848, “A TBR1-K228E Mutation Induces Tbr1 Upregulation, Altered Cortical Distribution of Interneurons, Increased Inhibitory Synaptic Transmission, and Autistic-Like Behavioral Deficits in Mice”.

What was measured:
Settings in all cases: protein: recombinant; tags: N-terminal His6 removed by thrombin (pET28a, NdeI/HindIII); label: 5'-biotin on strand 1
[1] = target: T1, TBR1 T-box domain K228E (human, UniProt Q16650 200-400, K228E); experiment: BLI; n=3; Kd only plotted in figure; BLI (BLITZ, streptavidin sensor): kinetic buffer 20 mM HEPES pH 7.5, 100 mM NaCl, 25 C (stated for sensor hydration/equilibration); protein stock in 20 mM HEPES pH 7.5, 150 mM NaCl, 5 mM MgCl2
T1 sequence: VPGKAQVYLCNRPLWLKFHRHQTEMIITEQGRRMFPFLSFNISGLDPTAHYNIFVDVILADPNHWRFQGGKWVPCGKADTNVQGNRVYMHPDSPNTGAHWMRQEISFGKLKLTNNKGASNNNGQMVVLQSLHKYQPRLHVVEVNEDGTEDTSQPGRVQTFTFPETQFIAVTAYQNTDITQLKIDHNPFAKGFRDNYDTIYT

[2] = target: T2, TBR1 T-box domain WT (hTBR1DBD) (human, UniProt Q16650 200-400); experiment: BLI; protein 2.5-10 uM; Kd only plotted in figure; BLI (BLITZ, streptavidin sensor): kinetic buffer 20 mM HEPES pH 7.5, 100 mM NaCl, 25 C (stated for sensor hydration/equilibration); protein stock in 20 mM HEPES pH 7.5, 150 mM NaCl, 5 mM MgCl2
T2 sequence: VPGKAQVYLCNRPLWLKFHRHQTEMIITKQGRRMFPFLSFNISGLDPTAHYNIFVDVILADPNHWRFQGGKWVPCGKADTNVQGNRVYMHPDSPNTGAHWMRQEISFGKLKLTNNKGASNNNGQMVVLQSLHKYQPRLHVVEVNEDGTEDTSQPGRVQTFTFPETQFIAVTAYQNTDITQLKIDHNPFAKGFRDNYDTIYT

[3] = target: T3, TBR1 T-box domain N374H (human, UniProt Q16650 200-400, N374H); experiment: BLI; n=3; stated as no effect on affinity; Kd only plotted in figure; BLI (BLITZ, streptavidin sensor): kinetic buffer 20 mM HEPES pH 7.5, 100 mM NaCl, 25 C (stated for sensor hydration/equilibration); protein stock in 20 mM HEPES pH 7.5, 150 mM NaCl, 5 mM MgCl2
T3 sequence: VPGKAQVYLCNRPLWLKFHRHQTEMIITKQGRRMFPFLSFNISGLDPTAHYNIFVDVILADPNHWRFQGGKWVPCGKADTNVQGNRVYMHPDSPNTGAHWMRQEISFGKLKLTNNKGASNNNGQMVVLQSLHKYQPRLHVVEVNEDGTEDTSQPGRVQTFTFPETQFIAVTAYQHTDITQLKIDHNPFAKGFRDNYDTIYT

B1: Grin2b-promoter probe (dsDNA)
DNA 1: TATATAGGTTGAGTGGCACGTTCCTGGGTGTGAGACC
DNA 2: GGTCTCACACCCAGGAACGTGCCACTCAA
binding signal [1]: ~3 fold increase in Kd vs WT | binding result [2]: binds | binding signal [3]: ~1 fold Kd vs WT
